Measured values published in article PMC6925320.

Molecular target: trypsin-activated CDTb (cell-binding component of the C. difficile transferase toxin), oligomer (Clostridioides difficile strain R20291) (UniProt Q9KH41)
Test: cryo-EM structure

For “trypsin-activated CDTb (cell-binding component of the C. difficile transferase toxin), oligomer (from UniProt Q9KH41 43-876) (natural protein)”, the stoichiometry N was 7.

Molecular target: lipolysis-stimulated lipoprotein receptor (LSR) on Caco-2 cells (human (endogenous in Caco-2)) (UniProt Q86X29)
Test: flow cytometry on cells

UniProt Q86X29, sequence (Q86X29 whole entry): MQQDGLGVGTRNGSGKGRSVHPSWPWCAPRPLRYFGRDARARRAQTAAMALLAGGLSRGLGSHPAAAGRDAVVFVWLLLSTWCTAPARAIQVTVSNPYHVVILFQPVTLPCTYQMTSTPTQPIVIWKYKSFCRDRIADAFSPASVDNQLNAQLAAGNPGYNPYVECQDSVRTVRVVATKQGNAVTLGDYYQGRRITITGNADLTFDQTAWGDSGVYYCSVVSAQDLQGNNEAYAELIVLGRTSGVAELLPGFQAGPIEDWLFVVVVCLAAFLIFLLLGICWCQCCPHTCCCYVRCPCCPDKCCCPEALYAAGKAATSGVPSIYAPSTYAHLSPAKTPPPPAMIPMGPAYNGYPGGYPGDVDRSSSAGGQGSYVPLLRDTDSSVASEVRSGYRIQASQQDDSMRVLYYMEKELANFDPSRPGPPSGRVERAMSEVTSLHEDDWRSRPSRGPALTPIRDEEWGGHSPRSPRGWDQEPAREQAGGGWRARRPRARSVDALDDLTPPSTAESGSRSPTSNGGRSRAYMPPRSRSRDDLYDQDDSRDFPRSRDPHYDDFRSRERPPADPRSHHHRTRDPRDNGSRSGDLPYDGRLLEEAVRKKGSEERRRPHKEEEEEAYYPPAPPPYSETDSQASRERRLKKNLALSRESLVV

Point of comparison: “Alexa-647-labeled CDTb T854E (from UniProt Q9KH41 43-876) (natural protein)”, Kd 38 nM. Against it:
- Alexa-647-labeled CDTb F774D (from UniProt Q9KH41 43-876) (natural protein) — higher, > 50 nM
- Alexa-647-labeled CDTb I852E (from UniProt Q9KH41 43-876) (natural protein) — 2-fold higher, 75 nM
- Alexa-647-labeled CDTb Y812D (from UniProt Q9KH41 43-876) (natural protein) — 9.7-fold lower, 3.9 nM
- Alexa-647-labeled CDTb, wild type (from UniProt Q9KH41 43-876) (natural protein) — 8.4-fold lower, 4.5 nM
